Laboratory results reported in patent US20190276499A1, “Protein VII Fragments and Methods of Use Thereof for the Treatment of Inflammatory Disorders” (priority 2016, published 2019).

Columns and labels:
[1] = target: T1, HMGB1 (Homo sapiens, UniProt P09429); assay: Release assay of HMGB1 in THP-1 cells; assay type: cell-based; parameters: endogenous in cells; details: PMA-treated THP-1 cells, LPS plus nigericin
T1 sequence (P09429 1-215): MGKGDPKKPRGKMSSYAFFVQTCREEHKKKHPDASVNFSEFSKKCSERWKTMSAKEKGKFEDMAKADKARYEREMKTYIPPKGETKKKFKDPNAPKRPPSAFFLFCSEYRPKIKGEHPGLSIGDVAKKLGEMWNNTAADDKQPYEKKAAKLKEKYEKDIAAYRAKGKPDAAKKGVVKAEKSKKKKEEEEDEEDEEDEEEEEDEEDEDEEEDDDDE
Protocol: THP-1 cells were seeded at a density of 2×10^5 cells per well in a 24-well plate, and stimulated into macrophage-like cells by addition of 10 ng/mL PMA for 48 hours. Cells were washed in PBS and transduced with recombinant adenovirus vectors expressing only GFP or protein VII-GFP such that >90% of cells were GFP positive. At 48 hours post transduction, cells were washed and 200 μL of serum free RPMI was added. To stimulate the inflammasome, LPS (Sigma-Aldrich L2880) with a final concentration of 0.5 μg/mL was added to wells and incubated for 2 hours, then nigericin (Sigma-Aldrich N7143) was added with a final concentration of 10 μM for 1 hour. Supernatants were collected and proteins precipitated overnight at 4° C. with a final concentration of 20% trichloroacetic acid (Sigma), washed with acetone, dried, and resuspended in 1×sample buffer with reducing agent (Invitrogen). For ELISA analysis, supernatants were harvested directly and HMGB1 content was detected by the manufacturer's instructions (Chondrex 6010). Cells were also harvested by the addition of 1×sample buffer with reducing agent (Invitrogen) and boiled. Supernatants and lysates were analyzed together by western blot.

[2] = target: T1, HMGB1; assay: Salt fractionation of nuclei, western blot for HMGB1; assay type: cell-based; parameters: endogenous in cells; host or cells: A549 (also 293 / 293-Cre in the salt fractionation); details: for Chromatin association of HMGB1 (retention in high salt fractions): A549 cells, doxycycline-induced expression
Protocol: Salt fractionation of nuclei was adapted from established protocols (Zaret, K. (2005) Micrococcal nuclease analysis of chromatin structure. Curr. Protoc. Mol., Biol. Chapter 21, Unit 21.1; Teves et al. (2012) Methods Mol. Biol., 833:421-432). Briefly, 2-4×10^7 cells were collected and resuspended in 2 mL of ice-cold buffer I (0.32 M sucrose, 60 mM KCl, 15 mM NaCl, 5 mM MgCl2, 0.1 mM EGTA, 15 mM Tris, pH 7.5, 0.5 mM DTT, 0.1 mM PMSF and protease inhibitor cocktail from Roche). To dissolve the plasma membrane, 2 mL ice-cold buffer I supplemented with 0.1% IGEPAL were added and samples were incubated on ice for 10 minutes. The 4 mL of nuclei was layered on 8 mL of ice-cold buffer II (1.2 M sucrose, 60 mM KCl, 15 mM NaCl, 5 mM MgCl2, 0.1 mM EGTA, 15 mM Tris, pH 7.5, 0.5 mM DTT, 0.1 mM PMSF and protease inhibitor cocktail from Roche) and centrifuged for 20 minutes at 10,000×g and 4° C. The pelleted nuclei were resuspended in 400 μL buffer III (10 mM Tris pH 7.4, 2 mM MgCl2, 0.1 mM PMSF) supplemented with 5 mM CaCl2 and the DNA was digested to mononucleosomes by addition of 1 unit of MNase (Sigma-Aldrich, N3755). The reaction was incubated at 37° C. for 30 minutes and then stopped by addition of 25 μL of 0.1M EGTA. The samples were centrifuged for 10 minutes, 350×g, at 4° C., and supernatants were set aside for western blot analysis. The pellet was resuspended in 400 μL of buffer IV (70 mM NaCl, 10 mM Tris pH 7.4, 2 mM MgCl2, 2 mM EGTA, 0.1% Triton X-100, 0.1 mM PMSF) with 80 mM salt and rotated for 30 minutes at 4° C. The sample was centrifuged for 10 minutes at 350×g, 4° C., and the supernatant collected for western blot analysis. This step was repeated for salt concentrations in buffer IV of 150 mM, 300 mM and 600 mM. The final pellet was resuspended in 400 μL ddH2O and all samples were analyzed together by western blot. An aliquot of each supernatant was set aside for DNA purification using a PCR purification kit (Qiagen) and analyzed by agarose gel electrophoresis. […]

B1: protein VII: mature protein VII of human adenovirus type 5 (SEQ ID NO:1), expressed in cells, mostly with C-terminal HA tag (protein)
chain: AKKRSDQHPVRVRGHYRAPWGAHKRGRTGRTTVDDAIDAVVEEARNYTPTPPPVSTVDAAIQTVVRGARRYAKMKRRRRRVARRHRRRPGTAAQRAAAALLNRARRTGRRAAMRAARRLAAGIVTVPPRSRRRAAAAAAAAISAMTQGRRGNVYWVRDSVSGLRVPVRTRPPRN
modifications: C-terminal HA tag; Human adenovirus 5
[1]
  HMGB1 in supernatants: reduced levels
[2]; A549 cells transfected 24 hours with GFP-tagged constructs
  Retention of HMGB1 in the 600 mM high-salt fraction: retention of HMGB1
[2]
  Chromatin association of HMGB1 (retention in high salt fractions): Increased chromatin association
[2]; listed as Ad5 protein VII
  Chromatin association of HMGB1 (retention in high salt fractions): retention in the high salt chromatin fractions
